Measured values as given in the supplement of paper PMC10598134.
± gives the standard deviation.

Assay: collision cross section of modified peptide (TIMS, N2, iRT-aligned); higher = larger / more extended gas-phase ion
Summary of the method: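 Values are averages of 1–3 technical replicates of the most abundant feature for each charge state. Collision cross section was obtained from the Mason-Schamp equation after 1/K0 calibration with three reference ions and run-wise alignment to the median iRT peptide deviation. Synthetic peptide pools (iRT standard spiked 1:40) were separated on a 120-min nanoflow C18 gradient at 60 °C, analysed on a timsTOF Pro/HT (dda-PASEF, nitrogen, ~2.4 mbar) and identified with MaxQuant.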

[1] = charge state: 2, modification: Trimethyl (K)
[2] = charge state: 3, modification: Trimethyl (K)
[3] = charge state: 2, modification: Dimethyl (K)
[4] = charge state: 3, modification: Dimethyl (K)
[5] = charge state: 2, modification: GlyGly (K)
[6] = charge state: 3, modification: GlyGly (K)
[7] = charge state: 2, modification: Phospho (Y)
[8] = charge state: 3, modification: Methyl (K)
[9] = charge state: 2, modification: hydroxyisobutyryl
[10] = charge state: 2, modification: Biotin
[11] = charge state: 2, modification: Citrullination (R)
[12] = charge state: 3, modification: Citrullination (R)
[13] = charge state: 2, modification: Succinyl
[14] = charge state: 3, modification: Succinyl
[15] = charge state: 2, modification: Methyl (R)
[16] = charge state: 3, modification: Methyl (R)
[17] = charge state: 2, modification: Butyryl
[18] = charge state: 3, modification: Butyryl
[19] = charge state: 2, modification: Acetyl (K)
[20] = charge state: 3, modification: Acetyl (K)
[21] = charge state: 2, modification: Malonyl
[22] = charge state: 2, modification: Methyl (K)
[23] = charge state: 2, modification: Crotonyl
[24] = charge state: 3, modification: Propionyl

Sequence: SDDESSQKDIK [_SDDESSQK(Trimethyl (K))DIK_]
- collision cross section [1]: 380.2 ± 1.7 Å²
- collision cross section [2]: 430.76 ± 2.7 Å²

Sequence: LDEKENLSAK [_LDEK(Dimethyl (K))ENLSAK_]
- collision cross section [3]: 364.75 ± 0.28 Å²
- collision cross section [4]: 441.27 Å²

Sequence: LEEVTGKLQVAR [_LEEVTGK(GlyGly (K))LQVAR_]
- collision cross section [5]: 407.08 ± 0.86 Å²
- collision cross section [6]: 463.74 ± 1.1 Å²

Sequence: YSTSGSSGLTTGK [_Y(Phospho (Y))STSGSSGLTTGK_]
- collision cross section [7]: 375.26 ± 0.063 Å²

Sequence: PGGEGPQCEKTTDVK [_PGGEGPQCEK(Methyl (K))TTDVK_]
- collision cross section [8]: 460.64 Å²

Sequence: GTISAPGKVVTAAAQAK [_GTISAPGK(Trimethyl (K))VVTAAAQAK_]
- collision cross section [1]: 476.61 ± 0.99 Å²
- collision cross section [2]: 496.52 ± 0.86 Å²

Sequence: GEPGIPAIPGIR [_GEPGIP(Hydroxyproline)AIPGIR_]
- collision cross section (charge state: 2, modification: Hydroxyproline): 346.11 ± 0.79 Å²

Sequence: DKALPLEAEVAPVK [_DK(hydroxyisobutyryl)ALPLEAEVAPVK_]
- collision cross section [9]: 422.26 ± 0.83 Å²

Sequence: IVSGKDYNVTANSK [_IVSGK(GlyGly (K))DYNVTANSK_]
- collision cross section [5]: 423.62 ± 2 Å²
- collision cross section [6]: 476.53 ± 2.2 Å²

Sequence: ISALQGKLSK [_ISALQGK(Biotin)LSK_]
- collision cross section [10]: 376.95 ± 2.2 Å²

Sequence: GGGYGGDRGGYGGDR [_GGGYGGDR(Citrullination (R))GGYGGDR_]
- collision cross section [11]: 373.62 ± 7.7 Å²

Sequence: SHLRHAIPSAER [_SHLR(Citrullination (R))HAIPSAER_]
- collision cross section [11]: 388.58 ± 0.81 Å²
- collision cross section [12]: 492.66 ± 4.6 Å²

Sequence: GFLQPPPLRQPR [_GFLQPPPLR(Citrullination (R))QPR_]
- collision cross section [11]: 391.62 ± 0.23 Å²
- collision cross section [12]: 460.68 Å²

Sequence: TFGKAAGPSLSHTSGGTQSK [_TFGK(Succinyl)AAGPSLSHTSGGTQSK_]
- collision cross section [13]: 476.24 Å²
- collision cross section [14]: 513.01 ± 0.73 Å²

Sequence: GRGAPPPPPSR [_GR(Methyl (R))GAPPPPPSR_]
- collision cross section [15]: 339.22 Å²
- collision cross section [16]: 437.5 Å²

Sequence: GRGAPPPPPSR [_GR(Citrullination (R))GAPPPPPSR_]
- collision cross section [11]: 339.21 ± 1.2 Å²

Sequence: TLTPASSPVSSPSK [_TLTPASSPVSSPS(HexNAc (ST))K_]
- collision cross section (charge state: 2, modification: HexNAc (ST)): 404.79 Å²

Sequence: GADFLVTEVENGGSLGSKK [_GADFLVTEVENGGSLGSK(Butyryl)K_]
- collision cross section [17]: 476.08 ± 1.1 Å²
- collision cross section [18]: 551.35 Å²

Sequence: VTRYPILGIPQAHR [_VTR(Citrullination (R))YPILGIPQAHR_]
- collision cross section [12]: 520.51 ± 0.78 Å²

Sequence: SGFGKFER [_SGFGK(Gluratylation)FER_]
- collision cross section (charge state: 2, modification: Glutarylation): 340.69 ± 0.69 Å²

Sequence: DASTLQSQKAEGTGDAK [_DASTLQSQK(Succinyl)AEGTGDAK_]
- collision cross section [13]: 437.2 ± 0.35 Å²
- collision cross section [14]: 509.05 ± 1.6 Å²

Sequence: LLFSNTAAQKLR [_LLFSNTAAQK(Acetyl (K))LR_]
- collision cross section [19]: 400.1 ± 2.9 Å²
- collision cross section [20]: 478.35 ± 0.83 Å²

Sequence: AQVLAGGRGK [_AQVLAGGR(Citrullination (R))GK_]
- collision cross section [11]: 333.54 ± 0.75 Å²

Sequence: VLDSGAPIKIPVGPETLGR [_VLDSGAPIK(Malonyl)IPVGPETLGR_]
- collision cross section [21]: 468.64 ± 1.6 Å²
- collision cross section (charge state: 3, modification: Malonyl): 512.64 ± 6.2 Å²

Sequence: IVSGKDYNVTANSK [_IVSGK(Biotin)DYNVTANSK_]
- collision cross section [10]: 432.72 ± 2.7 Å²
- collision cross section (charge state: 3, modification: Biotin): 508.73 Å²

Sequence: VDIDAPDVSIEGPDAKLK [_VDIDAPDVSIEGPDAK(GlyGly (K))LK_]
- collision cross section [5]: 470.72 ± 1.4 Å²
- collision cross section [6]: 499.87 ± 1.9 Å²

Sequence: PANEKATDDYHYEK [_PANEK(hydroxyisobutyryl)ATDDYHYEK_]
- collision cross section [9]: 446.18 ± 0.51 Å²
- collision cross section (charge state: 3, modification: hydroxyisobutyryl): 509.04 ± 1.9 Å²

Sequence: IHVQSSSDSSDEPAEKR [_IHVQSSSDSSDEPAEK(GlyGly (K))R_]
- collision cross section [5]: 469.51 Å²
- collision cross section [6]: 539.73 ± 0.58 Å²

Sequence: SSFAYKDQNENR [_SSFAYK(hydroxyisobutyryl)DQNENR_]
- collision cross section [9]: 405.04 ± 0.3 Å²

Sequence: GTISAPGKVVTAAAQAK [_GTISAPGK(Acetyl (K))VVTAAAQAK_]
- collision cross section [19]: 440.91 ± 2.6 Å²
- collision cross section [20]: 515.28 ± 2 Å²

Sequence: SYHLQIVTK [_SY(Phospho (Y))HLQIVTK_]
- collision cross section [7]: 357.29 ± 0.065 Å²
- collision cross section (charge state: 3, modification: Phospho (Y)): 461.35 ± 0.12 Å²

Sequence: TEVLSPNSKVESK [_TEVLSPNSK(Succinyl)VESK_]
- collision cross section [13]: 402.26 ± 0.79 Å²
- collision cross section [14]: 458.68 ± 13 Å²

Sequence: LQDVSGQLSSSKK [_LQDVSGQLSSSK(GlyGly (K))K_]
- collision cross section [5]: 438.61 ± 1.4 Å²
- collision cross section [6]: 490.05 ± 4.9 Å²

Sequence: FGTINIVHPKLGSYTK [_FGTINIVHPK(Methyl (K))LGSYTK_]
- collision cross section [22]: 470.37 Å²
- collision cross section [8]: 541.06 ± 0.45 Å²

Sequence: SDSGKPYYYNSQTK [_SDSGK(Trimethyl (K))PYYYNSQTK_]
- collision cross section [2]: 473.28 ± 2.4 Å²

Sequence: GSLEKGSPEDK [_GSLEK(Crotonyl)GSPEDK_]
- collision cross section [23]: 371.77 ± 0.26 Å²

Sequence: AQPQDSRGGSK [_AQPQDSR(Citrullination (R))GGSK_]
- collision cross section [11]: 347.45 ± 0.9 Å²

Sequence: GTITVSAQELKDNR [_GTITVSAQELK(Acetyl (K))DNR_]
- collision cross section [19]: 415.96 ± 1.9 Å²
- collision cross section [20]: 479.46 ± 0.78 Å²

Sequence: ASDTSSETVFGKR [_ASDTSSETVFGK(Trimethyl (K))R_]
- collision cross section [1]: 414.52 ± 0.6 Å²
- collision cross section [2]: 471.76 ± 2.7 Å²

Sequence: GRGGPGPAQR [_GR(Methyl (R))GGPGPAQR_]
- collision cross section [15]: 327.6 ± 3 Å²
- collision cross section [16]: 431.84 ± 5.1 Å²

Sequence: IHNAENIQPGEQKYEYK [_IHNAENIQPGEQK(Succinyl)YEYK_]
- collision cross section [14]: 525.87 ± 2 Å²

Sequence: PASGAGAGAGAGKR [_PASGAGAGAGAGK(Propionyl)R_]
- collision cross section (charge state: 2, modification: Propionyl): 359.78 ± 0.65 Å²
- collision cross section [24]: 464.2 ± 0.076 Å²

Sequence: DYSSGFGGKYGVQADR [_DYSSGFGGK(Dimethyl (K))YGVQADR_]
- collision cross section [3]: 435.9 ± 1.8 Å²
- collision cross section [4]: 488.23 ± 0.74 Å²

Sequence: VNIGQGSHPQKVK [_VNIGQGSHPQK(Propionyl)VK_]
- collision cross section [24]: 485.17 ± 0.74 Å²

Sequence: LTEKELAEAASK [_LTEK(Crotonyl)ELAEAASK_]
- collision cross section [23]: 394.89 ± 2.4 Å²

Sequence: VGLQVVAVKAPGFGDNR [_VGLQVVAVK(Formyl)APGFGDNR_]
- collision cross section (charge state: 2, modification: Formyl): 440.17 ± 1.2 Å²
- collision cross section (charge state: 3, modification: Formyl): 529.54 ± 3 Å²

Sequence: VFIGNLNTLVVKKK [_VFIGNLNTLVVK(GlyGly (K))KK_]
- collision cross section [6]: 502.69 ± 1.1 Å²

Sequence: DVNAAIAAIKTK [_DVNAAIAAIK(Methyl (K))TK_]
- collision cross section [22]: 392.53 ± 0.95 Å²
- collision cross section [8]: 462.62 ± 2.7 Å²

Sequence: DAIHFYNKSLAEHR [_DAIHFYNK(Butyryl)SLAEHR_]
- collision cross section [17]: 452.1 Å²
- collision cross section [18]: 511.38 ± 1.6 Å²

Sequence: VGEFSGANKEK [_VGEFSGANK(Dimethyl (K))EK_]
- collision cross section [3]: 376.33 ± 1.2 Å²
- collision cross section [4]: 440.62 ± 2.8 Å²

Sequence: GTVPDDAVEALADSLGKK [_GTVPDDAVEALADSLGK(Malonyl)K_]
- collision cross section [21]: 454.67 ± 1.4 Å²

Sequence: GSLEKGSPEDK [_GSLEK(hydroxyisobutyryl)GSPEDK_]
- collision cross section [9]: 376.24 ± 0.91 Å²

Sequence: TTEETSKPK [_TTEETSK(Butyryl)PK_]
- collision cross section [17]: 338.9 ± 1.2 Å²
